Measured values from publication PMC12816671.

Key:
[1] = biological target: Ku70 SAP domain WT (Homo sapiens, UniProt P12956 539-609); assay: EMSA; 46 mM KCl; preferred over nucleosome; SAP EMSA: 105 mM KCl (400 bp) or 46 mM KCl (153 bp), 3 mM Tris-HCl pH 7.5, 0.1 mM EDTA, 3-4% glycerol, 15 min room temp, agarose (0.8% or 1.5%); Ku70/80 EMSA: 5; conditions: protein: recombinant; tags: none (His14-SUMObd cleaved)
[2] = biological target: Ku70/80-dSAP (Homo sapiens, UniProt P12956;P13010 1-544;1-732); assay: EMSA; higher shift than full length, multiple loading; SAP EMSA: 105 mM KCl (400 bp) or 46 mM KCl (153 bp), 3 mM Tris-HCl pH 7.5, 0.1 mM EDTA, 3-4% glycerol, 15 min room temp, agarose (0.8% or 1.5%); Ku70/80 EMSA: 5; conditions: protein: recombinant; copies: 1;1
[3] = biological target: Ku70/80 full length (Homo sapiens, UniProt P12956;P13010 1-609;1-732); assay: EMSA; SAP EMSA: 105 mM KCl (400 bp) or 46 mM KCl (153 bp), 3 mM Tris-HCl pH 7.5, 0.1 mM EDTA, 3-4% glycerol, 15 min room temp, agarose (0.8% or 1.5%); Ku70/80 EMSA: 5; conditions: protein: recombinant; copies: 1;1

Measured: binding result

Chain of Ku70/80 full length (P12956 whole entry, chain 1 of 2): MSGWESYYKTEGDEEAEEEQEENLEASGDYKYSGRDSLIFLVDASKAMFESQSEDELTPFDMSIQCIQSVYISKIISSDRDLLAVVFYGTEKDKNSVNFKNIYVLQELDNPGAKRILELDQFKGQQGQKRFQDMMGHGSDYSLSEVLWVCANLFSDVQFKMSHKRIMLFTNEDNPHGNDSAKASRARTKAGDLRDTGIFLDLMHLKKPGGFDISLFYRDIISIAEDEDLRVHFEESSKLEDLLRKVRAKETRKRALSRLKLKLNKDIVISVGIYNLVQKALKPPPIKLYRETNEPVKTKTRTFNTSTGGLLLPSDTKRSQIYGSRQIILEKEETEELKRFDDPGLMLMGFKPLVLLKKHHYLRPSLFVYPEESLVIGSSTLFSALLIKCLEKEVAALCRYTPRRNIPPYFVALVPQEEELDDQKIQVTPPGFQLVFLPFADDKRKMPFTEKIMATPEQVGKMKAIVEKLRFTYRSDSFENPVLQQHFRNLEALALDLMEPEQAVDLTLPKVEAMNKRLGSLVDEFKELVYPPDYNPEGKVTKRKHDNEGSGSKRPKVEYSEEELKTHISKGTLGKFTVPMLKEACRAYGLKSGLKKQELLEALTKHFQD
Chain of Ku70/80 full length (P13010 whole entry, chain 2 of 2): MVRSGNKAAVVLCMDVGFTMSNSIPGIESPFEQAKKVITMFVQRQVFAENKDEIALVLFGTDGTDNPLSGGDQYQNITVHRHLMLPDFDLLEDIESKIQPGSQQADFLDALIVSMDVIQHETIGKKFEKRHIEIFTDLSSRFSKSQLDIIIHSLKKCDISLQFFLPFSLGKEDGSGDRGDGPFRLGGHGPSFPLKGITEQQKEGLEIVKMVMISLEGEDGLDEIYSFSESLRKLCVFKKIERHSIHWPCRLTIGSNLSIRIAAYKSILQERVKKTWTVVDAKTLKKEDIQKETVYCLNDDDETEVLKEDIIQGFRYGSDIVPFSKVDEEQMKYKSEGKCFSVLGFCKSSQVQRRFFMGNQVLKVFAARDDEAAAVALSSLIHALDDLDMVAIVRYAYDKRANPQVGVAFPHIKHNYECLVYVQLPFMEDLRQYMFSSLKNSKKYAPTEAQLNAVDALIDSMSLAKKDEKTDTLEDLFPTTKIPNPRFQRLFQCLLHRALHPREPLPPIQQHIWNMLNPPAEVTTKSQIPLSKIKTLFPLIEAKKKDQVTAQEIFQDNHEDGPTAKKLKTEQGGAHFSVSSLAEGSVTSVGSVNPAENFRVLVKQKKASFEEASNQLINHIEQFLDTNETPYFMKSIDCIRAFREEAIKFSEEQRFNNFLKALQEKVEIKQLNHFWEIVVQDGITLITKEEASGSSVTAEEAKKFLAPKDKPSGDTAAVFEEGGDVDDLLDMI
Chain of Ku70 SAP domain WT (P12956 539-609): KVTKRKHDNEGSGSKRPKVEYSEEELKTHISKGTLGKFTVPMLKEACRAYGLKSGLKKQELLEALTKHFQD
Chain of Ku70/80-dSAP (P12956 1-544, chain 1 of 2): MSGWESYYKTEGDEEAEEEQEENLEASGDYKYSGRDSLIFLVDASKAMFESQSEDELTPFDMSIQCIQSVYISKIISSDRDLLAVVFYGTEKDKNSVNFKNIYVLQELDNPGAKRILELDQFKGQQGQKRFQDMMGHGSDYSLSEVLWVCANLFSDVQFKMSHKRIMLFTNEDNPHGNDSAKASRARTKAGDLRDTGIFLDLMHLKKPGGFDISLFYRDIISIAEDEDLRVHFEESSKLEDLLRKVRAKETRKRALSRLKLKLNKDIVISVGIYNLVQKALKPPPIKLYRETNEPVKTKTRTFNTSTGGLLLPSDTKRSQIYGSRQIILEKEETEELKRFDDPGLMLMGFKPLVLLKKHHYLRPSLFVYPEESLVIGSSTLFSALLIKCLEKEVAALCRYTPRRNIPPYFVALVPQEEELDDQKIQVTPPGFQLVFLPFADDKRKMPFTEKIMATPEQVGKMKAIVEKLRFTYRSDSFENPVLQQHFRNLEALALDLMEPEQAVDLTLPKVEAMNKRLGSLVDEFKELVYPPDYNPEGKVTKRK
Chain of Ku70/80-dSAP (P13010 whole entry, chain 2 of 2): as the sequence (P13010 whole entry, chain 2 of 2) above

B1: 153 bp free DNA (dsDNA)
DNA 1: ATCCTGGAGAATCCCGGTGCCGAGGCCGCTCAATTGGTCGTAGACAGCTCTAGCACCGCTTAAACGCACGTACGCGCTGTCCCCCGCGTTTTAACCGCCAAGGGGATTACTCCCTAGTCTCCAGGCACGTGTCAGATATATACATCCTGTGAT
DNA 2: ATCACAGGATGTATATATCTGACACGTGCCTGGAGACTAGGGAGTAATCCCCTTGGCGGTTAAAACGCGGGGGACAGCGCGTACGTGCGTTTAAGCGGTGCTAGAGCTGTCTACGACCAATTGAGCGGCCTCGGCACCGGGATTCTCCAGGAT
binds: [1] | [2] | [3]
